# Measured values reported in article PMC8196545 (Cell reports, 2021).
# Where a chain is given by its changes, count along the chain named.
# B1: c9497 (antibody, V domains shown)
# VH: QVQLVQSGAEVKKPGSSVKVSCKASGGSFSDYGISWVRQAPGQGLEWMGGIIPGLETTKFAQGLQGRLTMTADESSTTAYMVLTRLRSQDTAVYYCATTGQQNDYYSSGTSYKLNYYFGMDVWGQGTTVTVSS
# VL: QSVLTQPPSSSGTPGQRVTITCSGGSSNIETNSVNWYQQLPGAAPKTVISATHQRPSGVPDRFSASKSGASASLAISGLQSEDEADYYCAVWDDSLHAWVFGGGTKVTVL
# B2: c5392 (antibody, V domains shown)
# VH: ELQLKESGPGLVKPSETLSLTCAVSGGPMCADWCFYYHWNWVRLSAEKGLEWMGRIHISGTAEYNPSFKGRATISLDISKNELSLTMTSLAAADTAVYFCARSGGNFHPTYFYMMDIWGRGTTVVVSS
# VL: DIQMTQSPSTLYASLGETVTITCRASQNIKKWLAWYQMRPGRAPRLLIYMATYRHDADSARYIGSESGGEFTLTIKSLRPDDFGTFYCQQYGAQPWTFGQGTRLEVK
# B3: c9488 (antibody, V domains shown)
# VH: QVQLVQSGSEVKKPGASVKVSCKASDYTFPNFGISWLRQAPGQGLEWMGWIRGSDGETNYAQKFKDRVTLTTERSRGTAYMELRSLISDDTAVYYCARDLKWDCSKRGCPDYQWFDIWGQGTLVTVSS
# VL: DVVMTQSPLSLPVTLGQPASISCISSHSLVYTDGNTYLAWFQQRPGQSPRRLIYTVSKRDSGVPDRFSGSGSGTDFTLKISRVEAEDVGIYFCMQGRHWPYTFGQGTTLEIK
# B4: c2518 (antibody, V domains shown)
# VH: QVRLHQWGEGLLRPSDTLTLSCSLSGNVFYNTFFNWVRQSPGRGLEWIAEVSFAGEWTFNPSLRSRVTTQVDGFTYRVSLFLKSMTAADAGVYYCASGGGSFDVDSWGPGIRVTVSS
# VL: EIVLTQTPLSSPVSLGQSASISCRSSQSLRHNNGNTYLSWFQQRPGQPPRLLIRKISDRFSGVPNRFSGSGAGTDFTLRIDRVEPEDVGTYYCLQATQFPWTFGQGTTVDIK
# B5: c5338 (antibody, V domains shown)
# VH: HVRLEQWGPGLLKPSETLSLSCVVHGESFDPYSWTWIRQSPKMGPQWLGEIRPFGETVYNPSLSGRLSLSRDNSKRLISLRLTSVSAADSAVYFCARGPVIYEVPYFWYRGLNVWGPGTTVVVST
# VL: DVVVTQSPLSVSVTPGESATILCKSSHSLRHDNGMHYLDWYLQKPGQSPQLLIYLSSNRASGVPDRFIGSGSGTDFTLKISRVEAEDVGMYFCMQGRQDPRIFGRGTRLEIK
# B6: c8540 (antibody, V domains shown)
# VH: QVQLLQSGPEVKKPGASVKVSCKTSGYTFTSYAITWVRQAPGEGLEWLGWISPHSRTAKYAQKFQGRLTMTTDTSTATAYMDLRSLSPDDTAVYYCARRIYDWDIERARFDPWGQGTLVAVSS
# VL: QSVLTQPPSVSADPGQRVTISCSGSSSNIGKNFVSWYQQLPGTAPKLVIYDNDRRPSGIPDRFSGSKSGTSATLGITGLQTGDEAAYYCATWDSGLNDGPVFGGGTRLTVL
# B7: c11405 (antibody, V domains shown)
# VH: EARLVESGGGRVQPGGSLRLSCEASGFRFSSYSFTWVRQSPGKGLEWLAKISASPFGRSQVNYAHSVEGRFTISRDNDRNSLRLQMNDLRGADTGVYYCARAPWQERSLDYNYAMDVWGQGTTVIVSS
# VL: ELVLTQSPGTLSLSPGERATVSCRASQSLRRDSLAWYQQKPGHSPRLLIFAASNRVPGIPYRFSGTGSGTQFTLTIEKMEPEDFAVYYCQSYGSSPLYTFGQGTKLDIN
# B8: c9603 (antibody, V domains shown)
# VH: EVHLLQSAAEVKKPGSTVKVSCKVSGYTFTDYFLHWIQQTPERGLLWMGFVDPDSGVTVYAENFQGRITMTADTSSDTVYLEISSLTSEDAAVYYCATGSHSYPDTDGNPVYVMAFQYWGQGTLVSVSS
# VL: DIVMTQSPDSLGVSLGETATVKCKSSQSILYSSDNKNYLAWYQQKPGQPPKLLIYWASTRESGVPDRFSGSGSETDFTLTINNVQAEDVAVYYCQQYSESPPTFGGGTKVDFK
# B9: c11031 (antibody, V domains shown)
# V domain 1: EVRLDQSGAEMRKTGTSVRLSCTISGHTTSDFFIHWVKQAPQRGPQWMGLINVEDENVIFAEGFQGRISIGADTSRTTVFLDLTHLTVEDMALYFCTTHTLEKDTGDYVAAFDSWGHGTFLSVSS
# V domain 2: QSVLTQPPSVSAVPGQKVIISCSGRTSNIGTNFVSWYQQFPGAAPKLLIYDTSHRPSGISDRFSASKSDTSATLAITALQPGDEAEYYCGAWDSGLNPAVFVFGSGTRVFVL
# B10: c10920 (antibody, V domains shown)
# V domain 1: EVRLDQSGAEMRKPGTSVRLSCTVSGHRTNDFFIHWVKQDPQRGPLWMGLINVEDENAIYAQEFQGRISIVADSSKTTVFLDLSHLKFEDTALYLCTTHTLEKETGDYVAAFDSWGQGTFLSVSS
# V domain 2: B9 V domain 2 with S53F, A91S
# B11: c5250 (antibody, V domains shown)
# VH: QVRLEQWGPGLLKPSETLSLTCAVHGESFDDYSWTWIRHTPSLGLQWIGEIRPFGEIVHKSSLSGRLSFSRDTSKRQVYLKLASVTAADAGVYFCARGPVIYQLPHFYYRGYNVWGQGTTVTVSA
# VL: DLVVTQSPRSLPVTPGESATIFCRSSQSLRHDNGMHYLDWYLQKPGQSPQLLIYLTSNRASGVSDRFSGSGSGTEFTLKISRVEADDVGIYYCMQAIQDPRVFGQGTRLEIK
# B12: c6486 (antibody, V domains shown)
# VH: QPQMIQSGIEVKQPGAAVKVRCKPSGYWFIACGISWVRQAPGRGLEWLGWVYPYNGKVNHAQKFRGRVTLTADRSTETAYMELKSLTSDDTAIYYCARDSEQYDAAMPNYFTQYGMDVWGQGTTVIVSS
# VL: EIVLTQSPGTLSLSPGETAALSCRSSQAFTDKGLAWYKQRPGQPPSLFVYGVSKRAAGVPDRVTGSGSGTEYTLTIGRLEPEDSGLYFCQQYHDPARTFGQGTKLEIK
# B13: c7565 (antibody, V domains shown)
# VH: QVRLEERGPGLVKPSETLSLVCGVSGYTMSGLWSTTYDWNWIRQSAGGRPEWIGRIYVGGPAQYNPAFKDRVAFSIDLSKNELSLTLTSVTAADSATYFCARGGDTFHPRYWYTMNIWGSGTKVIVSS
# VL: DIQLTQSPSTVSASVGDRITMSCRANKSLDVWVAWFRRRPGKAPEHLIYRRDYVWGGLPSRFSGSGSGTEFTLTISSLQAGDFGTYYCHQYKDQPWTFGQGTRVDLK
# B14: c10927 (antibody, V domains shown)
# V domain 1: EVRLDQSGTEMRKPGTRVRLSCKVSGHTTSDFFVHWVQQAPQRGPQWMGLINVEDENVIYADIFQGRISIVADTSKKTVFLDLTDLTFEETAIYFCATHTLQKDTGDYVAAFDSWGQGTLLYVSS
# V domain 2: B9 V domain 2 with T52N, S53F, H54N, P81A
# B15: c8537 (antibody, V domains shown)
# VH: QVHLVESGGGVVQPGKSLRLSCTSSGFTFSNYGFHWVRQAPGKGLEWVSFISNDGSNHFYTQSLRGRFTISRDNSKGTLYLEMNSLRSEDTAIYYCARDLYSRYRGYYDDLTGENHGNFDYWGLGTLVTVSA
# VL: NFLLSQSLSVSESPGKTVTISCTRSSGNIASNSVQWYQLRPGSSPTTLIYKNRQRPSGISDRFSGSVDTSSNSASLIISGLKTDDEADYYCQSFDNVNQEWVFGGGTKVTVL
# B16: c5296 (antibody, V domains shown)
# VH: QVHLQESAPTLVKTSETLSLTCTVSGGQFYPYFYSWIRQSPGGKLQWIGRKYSTTGSMRTNPSLHTRVGMPLDHSRSQIGLTLSSITAADTGIYYCVRDIMRDFDSVDGSGGVYGGVDVWGRGTTVTVSS
# VL: QFLLTQPHSVSGSPGKTITISCTRSDGTFARNSVRWYLQRPGEGPTTVFFDGNRRASGIPDRFSASIAVSSASASLTISGLTPEDEADYYCESSDGGHHVVFGGGTKVTVL
# B17: c13230 (antibody, V domains shown)
# VH: QVQLVESGGGVVQPGKSLKLSCATSGFNFSTFGIHWVRQAPGKGLEWLTVISYDGSEKFYGESVKGRFTISRDTSKKTVFLQIKSLKTEDTAVYYCAKDRAENRVSTSPLGMYYYFGMDVWGQGTTVIVSS
# VL: EIMMTQSPATLSASPGEGVTLSCRASQSVSNDFAWYQQTPGQSPKLLFYDAYTRATGVPARFSVNGSGTDFTLTINSLQSEDFASYYCLQYHKWPPYSFGQGTKLGIK
# B18: c10859 (antibody, V domains shown)
# VH: AGHLVESGGKLIRPGGSLSLSCVASGFTFRNAYLTWVRHIPGKGLEWVAHMKSHADGSHTDYSASVQGRCAISRDDSASTLYLHISNLRLDDTGVYYCVHLSTPDEWGHGTPVIVSS
# VL: DVVLTQYPVTLSGSQGDTVALSCRASESLTSHLAWYQQRDGQRPRLLIYDTSHRPPATPPRFSASGSGTDFTLIITSLEPEDSAVYFCQQRDFWPFSFGQGTKLDIT
# B19: c4302 (antibody, V domains shown)
# VH: QVLLEQSGGEMKKPGASLKVSCQASGYRFTNYGMSWVRQARGQGLEWMGWISAYNGKTIYAQRFQGRVTLTTDTSTRTAYLELRSLTSDDTAVYFCTRSQTYYFDSSDFYDGKYFDYWGQGTLVTVSS
# VL: AIQLTQSPSSLSASVGDRVTLTCRASQGISNALAWYQQKPGESPKLLIHAASSLESGVPSRFSGSGSGTDFTLTISGLQAEDFATYYCQQFNSFPLTFGPGTRLEIK
# B20: c10868 (antibody, V domains shown)
# V domain 1: B9 V domain 1 with R12G, I24V, R76K, V88F, A110S, H117Q
# V domain 2: B9 V domain 2 with S53F
# B21: c5478 (antibody, V domains shown)
# VH: B11 VH with E5Q, E16D, D30H, H39Q, Y79S, K81R, A83T, Q103H, H106D
# VL: B11 VL with L2V, P12R, D32A, S64P, I90M
# Biological target: HIV-1 NL4-3 Env on infected cells (HIV-1 group M subtype B, NL4-3 (pNL4-3 …, strain))
row,Binder,binding result
1,B1,binds
2,B2,binds
3,B3,binds
4,B4,binds
5,B5,binds
6,B6,binds
7,B7,binds
8,B8,binds
9,B9,binds
10,B10,binds
11,B11,binds
12,B12,binds
13,B13,binds
14,B14,binds
15,B15,binds
16,B16,binds
17,B17,binds
18,B18,binds
19,B19,binds
20,B20,binds
21,B21,binds
